The test addresses eukaryotic initiation factor 4E (eIF4E) (human (endogenous in HEK293T)) (UniProt P06730). Briefly: pull-down; eIF4E captured from HEK293T lysate (1 mg protein) on m7GTP-agarose (cap analog), 4 °C, 90 min, 50 mM HEPES pH 7.4, 50 mM NaCl; eluted with 0.5 mM m7GTP; blots for eIF4E and 4EBP1; cells in complete medium or medium without His, Arg, Leu or Met for 12 h, or transfected with empty vector, wild-type or T37A/T46A 4EBP1 for 24 h.
Sequence of UniProt P06730 (P06730 whole entry): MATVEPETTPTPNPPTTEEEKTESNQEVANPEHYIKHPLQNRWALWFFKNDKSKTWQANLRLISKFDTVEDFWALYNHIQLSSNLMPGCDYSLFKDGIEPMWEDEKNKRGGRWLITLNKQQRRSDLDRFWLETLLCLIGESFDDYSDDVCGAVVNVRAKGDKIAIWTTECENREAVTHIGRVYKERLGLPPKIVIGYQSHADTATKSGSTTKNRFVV

Regarding “mutant constitutively active 4EBP1(T37A/T46A) (from UniProt Q60876 1-117) (natural protein)”, the fold of 4EBP1 bound to eIF4E against cells with empty vector is 4 fold.

For the origin of these results see PMC5967319.
